# Patent US7799326B2, “Methods and compositions for cathespin k complex-mediated disorders” (Mount Sinai School of Medicine, priority 2001, dated 2010)
# Substitutions are numbered along the chain they refer to. Names may count otherwise. “Also recorded” adds a separate entry of the source.
# B1: Y212C: pycnodysostosis-causing cathepsin K mutant (protein, UniProt P43235 115-329, looked up, variant Y212C)
# Cathepsin K: APDSVDYRKKGYVTPVKNQGQCGSCWAFSSVGALEGQLKKKTGKLLNLSPQNLVDCVSENDGCGGGYMTNAFQYVQKNRGIDSEDAYPYVGQEESCMCNPTGKAAKCRGYREIPEGNEKALKRAVARVGPVSVAIDASLTSFQFYSKGVYYDESCNSDNLNHAVLAVGYGIQKGNKHWIIKNSWGENWGNKGYILMARNKNNACGIANLASFPKM
# B2: mutant 1: cathepsin K mutant K77A, R79A (protein, UniProt P43235 115-329, looked up, variant K77A R79A)
# Cathepsin K: B1 Cathepsin K with K77A, R79A, C98Y
# B3: mutant 5: cathepsin K mutant K9E (protein, UniProt P43235 115-329, looked up, variant K9E)
# Cathepsin K: B1 Cathepsin K with K9E, C98Y
# B4: Cat S: human cathepsin S, closely related cysteine protease (protein, UniProt P25774 115-331, looked up)
# Cathepsin S: LPDSVDWREKGCVTEVKYQGSCGACWAFSAVGALEAQLKLKTGKLVSLSAQNLVDCSTEKYGNKGCNGGFMTTAFQYIIDNKGIDSDASYPYKAMDQKCQYDSKYRAATCSKYTELPYGREDVLKEAVANKGPVSVGVDARHPSFFLYRSGVYYEPSCTQNVNHGVLVVGYGDLNGKEYWLVKNSWGHNFGEEGYIRMARNKGNHCGIASFPSYPEI
# Legend:
# gelatin = assay: Gelatin hydrolysis by cathepsin K mutant proteins; assay type: biochemical
# [1] = Mobility shift assay of complex formation of proteases with CSA; assay type: binding
# Method: The gel was run at about 25° C. 55 V, 250 mA for 30 min, then dried and developed the radio signal on a film.
# type I collagen = assay: Type I collagen hydrolysis by cathepsin K mutant proteins; assay type: biochemical, bovine; conditions: 800 nM protein, 0.4 mg/ml collagen, 0.15% CSA, 8 h at 28 C, pH 5.5
# Method: (§1) The mutant proteins were generated to characterize cluster 1:K77A, R79A (mutant 1), K103, K106A, R108A, R111A, (mutant 2), K77A, R79A, K103, K106A, R108A,R111A (mutant 3), K77A, R79A, K103, K106A, R108A,R111A, K122A, R127A (mutant 4). Mutant proteins were expressed in Pichia pastoris and the activity of the protein was determined towards two synthetic peptide substrates, gelatin and type I native collagen. […] The cleavage products were separated by SDS polyacrylamide electrophoresis using 4-20% Tris Glycine gels.
# [2] = Activity of cathepsin K mutant proteins towards synthetic peptide substrates; assay type: biochemical; conditions: Example 17 mutants
# Method: as §1
molecule,measurement,setting,value
B1,gelatin hydrolysis by the protease,"gelatin; 1 nM Y212C, 0.15% CSA, 37 C for 8 h",exhibited gelatinase activity
same,complex formation with CSA,[1]; 0.2 μg/ml and 1000 μg/ml CSA,unable to form a complex with CSA
B2,degradation of type I collagen by the protease,type I collagen,complete degradation of type I collagen
same,degradation of type I collagen by the protease,type I collagen; listed as Mutant 1,did not reveal an inhibition
B3,degradation of type I collagen by the protease,type I collagen,strongly inhibited; also recorded: significantly reduced
same,activity towards synthetic peptide substrates compared with wild type,[2],fully active
same,activity towards gelatin compared with wild type,gelatin; Example 17 mutants,fully active
same,complex formation with CSA,"[1]; Example 17 mutants, gel-mobility assay",still revealed complex formation
B4,complex formation with CSA,"[1]; 50 ng [125I]DCG-04 labeled protease, 0.1% CSA",Only cathepsin K formed a stable complex
